This note sets out measurements from patent publication US7262271.

This data set has as its system Antisera against the PAS1 peptides.

Regarding P. gingivalis Arg-specific proteinase, the Arg-specific proteolytic activity result is “Antisera against the PAS1 peptides inhibited both Arg- and Lys-specific proteolytic activity”.
P. gingivalis Lys-specific proteinase: the Lys-specific proteolytic activity result is “Antisera against the PAS1 peptides inhibited both Arg- and Lys-specific proteolytic activity”.
